Blank lines part the entries; values can stand above or below the molecule they belong to. *1 amine or outer side, *2 acyl side, *3 side chain or, on linkers, in order; H or OH if unused. Where a SMILES comes first, the peptide text is derived from it. [ ]: non-standard residue; d: D form. The star is where a group is joined. dPhe(4-125I) = para-(125I)iodo-D-phenylalanine, O=C([C@@H](Cc1ccc([125I])cc1)N[*:1])[*:2]; dPhe(4-Cl) = N[C@H](Cc1ccc(Cl)cc1)C(=O)O; dPhe(4-I) = N[C@H](Cc1ccc(I)cc1)C(=O)O; 2Nal = N[C@@H](Cc1ccc2ccccc2c1)C(=O)O; d2Nal = N[C@H](Cc1ccc2ccccc2c1)C(=O)O; Fmoc = O=C(OCC1c2ccccc2-c2ccccc21)*; Cha = N[C@@H](CC1CCCCC1)C(=O)O; d2Thi = N[C@H](Cc1cccs1)C(=O)O; Nle = CCCC[C@H](N)C(=O)O
Experiments:
[1] = biological target: MC receptors in rat brain homogenate; assay: Melanocortin receptor binding assay using ^125I-HP 467 in rat brain homogenate; details: individual tetrapeptides
Protocol: For assays, fine chemicals were obtained from Sigma (St. Louis Mo.) and GF/B plates and MICROSCINT were obtained from Packard Instrument Co. (Meriden Conn.). Frozen rat brains were thawed and the thalamus and hypothalamus were dissected out and weighed. The tissue was homogenized in 40 ml buffer A (50 mM Tris-HCl, 2 mM EDTA, 10 mM CaCl2, 100 μM PMSF, pH 7.4) in a Dounce homogenizer. The homogenate was centrifuged at 39,000×g for 10 min, resuspended in 20 ml fresh buffer and recentrifuged. The pellet was resuspended in 80 ml buffer B (50 mM Tris-HCl, 2 mM EDTA, 10 mM CaCl2, 5 mM MgCl2, 100 μM PMSF, pH 7.4). ^125I-HP 467 was custom labeled by Amersham to a specific activity of 2000 Ci/mmol (Amersham; Arlington Heights IL). Fifty pM ^125I-HP 467 and 0.2 mg protein/ml membrane suspension containing 2 mg/ml BSA was added to each assay tube.
Competition assays were performed using α-MSH, γ1-MSH, γ2-MSH, γ3-MSH and ACTH (4-10) also containing 1 mM phenanthroline, 200 μg/ml bacitracin, and 5 μg/ml leupeptin. Tubes were incubated for 2 hours at 37° C. The assay was terminated by filtration through GF/B filters previously soaked in 5 mg/ml BSA Tris-HCl buffer. The samples were washed with Tris-HCl, dried and counted in Packard Minaxl gamma counter (Packard Instrument Co.).
IC50 values were determined in brain tissue as described in Example III.

[2] = biological target: T1, MC receptor in mouse B16 cells (Mus musculus, UniProt Q01727); assay: MC receptor binding activity in mouse B16 cells; details: individual tetrapeptides
T1 construct: endogenous in cells; host or cells: mouse B16 cells
T1 sequence (Q01727 whole entry): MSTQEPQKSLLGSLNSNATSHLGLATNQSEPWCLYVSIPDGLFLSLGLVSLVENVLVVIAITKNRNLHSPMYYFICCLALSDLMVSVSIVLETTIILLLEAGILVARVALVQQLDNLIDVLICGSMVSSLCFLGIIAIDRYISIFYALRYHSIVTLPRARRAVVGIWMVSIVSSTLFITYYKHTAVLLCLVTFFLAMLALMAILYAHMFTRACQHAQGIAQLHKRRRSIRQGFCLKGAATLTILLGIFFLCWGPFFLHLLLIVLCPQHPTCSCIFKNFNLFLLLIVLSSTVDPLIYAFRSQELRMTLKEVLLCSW
Description: The 36 peptides were screened for MC receptor binding activity in rat brain and in mouse B16 cells.

[3] = biological target: T2, hMC5 (Homo sapiens, UniProt P33032); assay: Displacement of ^125I-HP 467 in HEK 293 cells expressing hMC5; details: receptor expressed in HEK 293 cells, read-out: Binding IC50, MC-5
T2 construct: expressed in transfected cells; host or cells: HEK 293 cells
T2 sequence (P33032 whole entry): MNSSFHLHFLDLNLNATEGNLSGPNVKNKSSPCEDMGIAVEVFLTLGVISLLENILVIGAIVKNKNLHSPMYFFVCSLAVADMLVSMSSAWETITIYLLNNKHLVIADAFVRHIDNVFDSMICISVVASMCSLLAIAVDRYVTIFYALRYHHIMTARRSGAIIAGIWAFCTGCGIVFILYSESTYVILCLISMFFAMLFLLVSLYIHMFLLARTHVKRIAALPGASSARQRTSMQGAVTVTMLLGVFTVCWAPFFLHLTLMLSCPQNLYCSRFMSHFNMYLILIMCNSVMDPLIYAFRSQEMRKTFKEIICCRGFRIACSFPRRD

[4] = system: Sprague-Dawley rats; assay: HP 467 antagonism of HP 228 induced hypophagia (food intake); format: in vivo; details: IP BID, HP 228 1.5 mg/kg, HP 467 3.0 mg/kg
Protocol: Male Sprague-Dawley rats weighing 250 to 300 grams were divided into three treatment groups of 8 rats each. The control group received IP saline injections BID (1 ml/kg) at 8 AM and 4 PM. […] After each injection, each rat immediately received a second injection. […] All injections started at 4 PM on day 0 and ended on the afternoon of day 2. Food consumption and body weight measurements were taken daily, each morning.

[5] = biological target: T3, hMC1 (Homo sapiens, UniProt Q01726); assay: Displacement of ^125I-HP 467 in transfected mouse L cells expressing hMC1; details: receptor expressed in mouse L cells, read-out: Binding IC50, MC-1
T3 construct: expressed in transfected cells; host or cells: mouse L cells
T3 sequence (Q01726 whole entry): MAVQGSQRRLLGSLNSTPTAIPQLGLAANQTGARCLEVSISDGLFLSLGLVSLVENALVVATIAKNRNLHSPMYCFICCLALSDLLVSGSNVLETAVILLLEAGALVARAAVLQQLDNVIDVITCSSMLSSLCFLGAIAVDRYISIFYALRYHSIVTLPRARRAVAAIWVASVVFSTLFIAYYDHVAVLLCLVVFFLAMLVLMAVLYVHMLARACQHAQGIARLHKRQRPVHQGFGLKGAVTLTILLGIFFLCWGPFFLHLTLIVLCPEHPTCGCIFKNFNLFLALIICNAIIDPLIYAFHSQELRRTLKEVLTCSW

[6] = biological target: T4, hMC3 (Homo sapiens, UniProt P41968); assay: Displacement of ^125I-HP 467 in transfected mouse L cells expressing hMC3; details: receptor expressed in mouse L cells, read-out: Binding IC50, MC-3
T4 construct: expressed in transfected cells; host or cells: mouse L cells
T4 sequence (P41968 whole entry): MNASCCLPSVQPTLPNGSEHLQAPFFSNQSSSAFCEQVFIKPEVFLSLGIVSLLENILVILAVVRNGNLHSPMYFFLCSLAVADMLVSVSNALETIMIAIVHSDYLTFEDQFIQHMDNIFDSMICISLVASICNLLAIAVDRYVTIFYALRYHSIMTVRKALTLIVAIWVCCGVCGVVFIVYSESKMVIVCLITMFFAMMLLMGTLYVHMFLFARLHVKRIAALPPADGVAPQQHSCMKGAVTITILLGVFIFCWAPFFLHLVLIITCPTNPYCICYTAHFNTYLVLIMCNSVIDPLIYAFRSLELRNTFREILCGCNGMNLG

[7] = biological target: T5, hMC4 (Homo sapiens, UniProt P32245); assay: Displacement of ^125I-HP 467 in transfected mouse L cells expressing hMC4; details: receptor expressed in mouse L cells, read-out: Binding IC50, MC-4
T5 construct: expressed in transfected cells; host or cells: mouse L cells
T5 sequence (P32245 whole entry): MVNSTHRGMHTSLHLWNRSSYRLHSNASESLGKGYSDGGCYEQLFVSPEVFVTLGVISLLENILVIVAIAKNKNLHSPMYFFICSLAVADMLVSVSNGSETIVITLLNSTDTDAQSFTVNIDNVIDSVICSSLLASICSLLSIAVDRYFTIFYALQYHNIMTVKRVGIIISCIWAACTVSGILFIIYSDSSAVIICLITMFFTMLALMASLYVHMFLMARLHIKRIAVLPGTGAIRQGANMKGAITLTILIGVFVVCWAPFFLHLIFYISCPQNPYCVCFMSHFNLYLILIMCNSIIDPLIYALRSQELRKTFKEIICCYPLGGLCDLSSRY

[8] = biological target: MC receptors in rat brain homogenate; assay: Melanocortin receptor binding assay using ^125I-HP 467 in rat brain homogenate; details: saturation binding to rat brain membranes
[9] = biological target: MC receptors in rat brain homogenate (rat); assay: competition binding, rat brain membranes
[10] = biological target: MC receptors of mouse B16 cells (mouse); assay: competition binding, mouse B16 cells; tracer not stated
MC receptors of mouse B16 cells (mouse), sequence (Q01727 whole entry): as the sequence (Q01727 whole entry) above

[11] = biological target: human melanocortin receptor 1 (human) (UniProt Q01726); assay: saturation radioligand binding; mouse L cells expressing MC1
human melanocortin receptor 1 (human), sequence (Q01726 whole entry): as the sequence (Q01726 whole entry) above

[12] = biological target: human melanocortin receptor 3 (human) (UniProt P41968); assay: saturation radioligand binding; HEK 293 cells expressing MC3
human melanocortin receptor 3 (human), sequence (P41968 whole entry): as the sequence (P41968 whole entry) above

[13] = biological target: human melanocortin receptor 4 (human) (UniProt P32245); assay: saturation radioligand binding; mouse L cells expressing MC4
human melanocortin receptor 4 (human), sequence (P32245 whole entry): as the sequence (P32245 whole entry) above

[14] = biological target: human melanocortin receptor 3 (human) (UniProt P41968); assay: saturation radioligand binding; mouse L cells expressing MC3
[15] = biological target: human melanocortin receptor 1 (human) (UniProt Q01726); assay: saturation radioligand binding; HEK 293 cells expressing MC1
[16] = biological target: MC receptors in rat brain homogenate (rat); assay: saturation radioligand binding, rat brain membranes

IC50 [1]: 18 nM
Molecule: CC(=O)N[C@@H](Cc1c[nH]cn1)C(=O)N[C@H](Cc1ccc(Cl)cc1)C(=O)N[C@@H](CCCNC(=N)N)C(=O)N[C@@H](Cc1ccc2ccccc2c1)C(N)=O [AC—H-(pcl-f)-R-(Nal)-NH2] (Ac-H[dPhe(4-Cl)]R[2Nal]-NH2)

IC50 [1]: 469 nM
Molecule: CC(=O)NCCCC[C@H](NC(=O)OCC1c2ccccc2-c2ccccc21)C(=O)N[C@H](Cc1cccs1)C(=O)N[C@@H](CCCNC(=N)N)C(=O)N[C@@H](Cc1ccc2ccccc2c1)C(N)=O [Ac-(αFmLys)-(D-Thi)-R-(Nal)-NH2] (Fmoc-K(Ac)[d2Thi]R[2Nal]-NH2)

IC50 [1]: 427 nM
Molecule: CC(=O)NCCCC[C@H](NC(=O)OCC1c2ccccc2-c2ccccc21)C(=O)N[C@H](Cc1ccc(Cl)cc1)C(=O)N[C@@H](CCCNC(=N)N)C(=O)N[C@@H](Cc1ccc2ccccc2c1)C(N)=O [Ac-(αFmLys)-(pCl-f)-R-(Nal)-NH2] (Fmoc-K(Ac)[dPhe(4-Cl)]R[2Nal]-NH2)

IC50 [1]: > 4000 nM
Molecule: CC(=O)NCCCC[C@H](NC(=O)OCC1c2ccccc2-c2ccccc21)C(=O)N[C@@H](CCCNC(=N)N)C(=O)N[C@@H](CC1CCCCC1)C(=O)N[C@@H](Cc1ccc2ccccc2c1)C(N)=O [Ac-(αFmLys)-R-(L-Cha)-(Nal)-NH2] (Fmoc-K(Ac)R[Cha][2Nal]-NH2)

IC50 [1]: 427 nM
Molecule: CC(=O)NCCCC[C@H](NC(=O)OCC1c2ccccc2-c2ccccc21)C(=O)N[C@@H](CCCNC(=N)N)C(=O)N[C@@H](CC1CCCCC1)C(=O)N[C@H](CCCNC(=N)N)C(N)=O [Ac-(αFmLys)-R-(L-Cha)-r-NH2] (Fmoc-K(Ac)R[Cha][dR]-NH2)

IC50 [1]: 2000 nM
Molecule: CC(=O)NCCCC[C@H](NC(=O)OCC1c2ccccc2-c2ccccc21)C(=O)N[C@@H](CCCNC(=N)N)C(=O)N[C@@H](CCCNC(=N)N)C(=O)N[C@@H](Cc1ccc2ccccc2c1)C(N)=O [Ac-(αFmLys)-R-R-(Nal)-NH2] (Fmoc-K(Ac)RR[2Nal]-NH2)

IC50 [1]: 51 nM
IC50 ([1]; listed as Ac-His-(pCl-f)-Arg-(D-Nal)-NH2): 18 nM
Molecule: CC(=O)N[C@@H](Cc1c[nH]cn1)C(=O)N[C@H](Cc1ccc(Cl)cc1)C(=O)N[C@@H](CCCNC(=N)N)C(=O)N[C@H](Cc1ccc2ccccc2c1)C(N)=O [Ac—H-(pCl-f)-R-(D-Nal)-NH2, Ac-His-(pCl-f)-Arg-(D-Nal)-NH2] (Ac-H[dPhe(4-Cl)]R[d2Nal]-NH2)

IC50 [1]: > 5000 nM
IC50 [2]: 156 nM
Molecule: CC(=O)N[C@@H](Cc1c[nH]cn1)C(=O)N[C@H](Cc1ccc(Cl)cc1)C(=O)N[C@@H](CC1CCCCC1)C(=O)N[C@H](CCCNC(=N)N)C(N)=O [Ac—H-(pcl-f)-(L-Cha)-r-NH2] (Ac-H[dPhe(4-Cl)][Cha][dR]-NH2)

IC50 [3]: 194 nM
IC50 [5]: 1.49 nM
Molecule: CCCC[C@H](NC(C)=O)C(=O)N[C@@H](CCC(N)=O)C(=O)N[C@@H](Cc1c[nH]cn1)C(=O)N[C@H](Cc1ccccc1)C(=O)N[C@@H](CCCNC(=N)N)C(=O)N[C@H](Cc1c[nH]c2ccccc12)C(=O)NCC(N)=O [HP 228, Ac-(Nle)QHfRwG-NH2, reference compound]
Hypophagia (food intake) Change, Day 1 ([4]; Day 1): −6.8%
Hypophagia (food intake) Change, Day 2 ([4]; Day 2): −5.3%

IC50 [6]: 0.48 nM
IC50 [7]: 0.31 nM
IC50 [3]: 0.46 nM
IC50 [5]: 0.23 nM
Molecule: CCCC[C@H](NC(C)=O)C(=O)N[C@@H](CCC(N)=O)C(=O)N[C@@H](Cc1c[nH]cn1)C(=O)N[C@H](Cc1ccc(I)cc1)C(=O)N[C@@H](CCCNC(=N)N)C(=O)N[C@H](Cc1c[nH]c2ccccc12)C(=O)NCC(N)=O [HP 467, Ac-Nle-Gln-His-(p(I)-D-Phe)-Arg-(D-Trp)-Gly-NH2] (Ac-[Nle]QH[dPhe(4-I)]R[dW]G-NH2)

Kd [8]: 0.4 nM
Molecule: CCCC[C@H](NC(C)=O)C(=O)N[C@@H](CCC(N)=O)C(=O)N[C@@H](Cc1c[nH]cn1)C(=O)N[C@H](Cc1ccc(I)cc1)C(=O)N[C@@H](CCCNC(=N)N)C(=O)N[C@H](Cc1c[nH]c2ccccc12)C(=O)NCC(N)=O [^125I-HP 467, Ac-Nle-Gln-His-(p(^125I)-D-Phe)-Arg-(D-Trp)-Gly-NH2] (Ac-[Nle]QH[dPhe(4-I)]R[dW]G-NH2)

IC50 [9]: 18 nM
IC50 [10]: 68 nM
Molecule: AC-H-(pcl-f)-R-(Nal)-NH2 (peptide)

IC50 [9]: 469 nM
Molecule: Ac-(αFmLys)-(D-Thi)-R-(Nal)-NH2 (peptide)

IC50 [9]: 427 nM
IC50 [10]: 41 nM
Molecule: Ac-(αFmLys)-(pCl-f)-R-(Nal)-NH2 (peptide)

IC50 [10]: 1140 nM
Molecule: Ac-(αFmLys)-R-(L-Cha)-(Nal)-NH2 (peptide)

IC50 [9]: 427 nM
IC50 [10]: 185 nM
Molecule: Ac-(αFmLys)-R-(L-Cha)-r-NH2 (peptide)

IC50 [9]: 2000 nM
IC50 [10]: 1420 nM
Molecule: Ac-(αFmLys)-R-R-(Nal)-NH2 (peptide)

IC50 [9]: 51 nM
IC50 [10]: 19 nM
Molecule: Ac-H-(pCl-f)-R-(D-Nal)-NH2 (SEQ ID NO:18) (peptide)

IC50 [10]: 156 nM
Molecule: Ac-H-(pcl-f)-(L-Cha)-r-NH2 (peptide)

Kd [11]: 0.092 nM
Kd [12]: 0.29 nM
Kd [13]: 0.082 nM
Kd [14]: 0.04 nM
Kd [15]: 0.132 nM
Molecule: ^125I-HP 467, Ac-Nle-Gln-His-(p(^125I)-D-Phe)-Arg-(D-Trp)-Gly-NH2

Bmax (fmoles/mg protein) [16]: 21
Kd [16]: 0.4 nM
Molecule: Ac-[Nle]QH[dPhe(4-125I)]R[dW]G-NH2 [^125I-HP 467, Ac-Nle-Gln-His-(p(^125I)-D-Phe)-Arg-(D-Trp)-Gly-NH2]
